Reference: patent US20030235860A1, “Interactions between AR, ER, TR2, and TR4” (priority 1999, published 2003)

Assays:
PSA = assay: Northern blot of endogenous PSA in LNCaP cells; format: cell-based, human; details: LNCaP cells
Experimental: Total RNA from the DHT-treated transfected LNCaP cells was prepared by the ultracentrifugation method as described. Lee, et al., J: Biol. Chem. 273, 13437-13443 (1998). The probe was obtained from exon 3 of PSA gene and labeled with a-32p dCTP.
To rule out the potential artificial effects linked to transfected reporter assays, the expression of endogenous prostate specific antigen (PSA, an androgen target that is widely used as a marker for prostate cancer progression) in LNCaP cells was measured by Northern blot analysis. Total RNA (25 μg) from LNCaP cells, which were transfected with either pCMX-TR4 or pCMX vector using SuperFect (Qiagen), was applied into a formamide RNA gel, then transferred onto a Nylon membrane, and then hybridized with a 32P-PSA gene fragment from the exon 3. P-actin was used as an internal control. […] The level of secreted PSA protein in the medium measured by ELISA, also confirmed this conclusion. This in vivo TR4-mediated suppressive effect strongly supports the above reporter assays.
Total RNA from transfected LNCaP cells was prepared using TRIZOL reagents (Life Technology) as instructed by manufacturer. The probe was obtained from the PSA gene by PCR and labeled with 32P dCTP. Northern hybridization was performed as described previously [Mu X. M. et al. (2002) J Biol Chem 275:23877-23883].

MCF7-TR2 cells = assay: MTT growth assay, MCF7-TR2 cells; format: cell-based; details: MCF7-TR2 cells; 10 nM E2, and/or 2 mg/ml doxycycline (TR2 induction)
Experimental: (A) Growth assays were performed by MTT method as instructed by manufacturer (Sigma). 5×10^3 MCF7-pBIG and MCF7-TR2 cells were seeded in 24-well plates and incubated in RPMI with 10% CD-FCS for 48 h. […] After 3- and 5-day treatment, cells were harvested for MTT assay. Data represents the relative folds of MTT O.D.570 values at day 5 divided by that at day 3. […] Cells were then trypsinized and fixed overnight in 70% Ethanol. After cells were incubated with 1 mg/ml RNase A (Sigma) and propidium iodide (Roche Molecular Biochemicals), the DNA contents of cells were measured by a flow cytometry. (C) Percentage of growth suppression by TR2. MCF7-TR2 cells were seeded at 5×10^3 cells per well in 24-well plates. […] The treatments were changed every two days. The indices of cell growth were determined by MTT assay. The MTT values from cells without doxycycline were set as 100% in each kind of treatment. Values are represented by the percentage of growth suppression from cells with doxycycline to that without doxycycline.

TR2 = molecular target: T1, TR2 (Homo sapiens, UniProt P13056); assay: GST-ER fragment pull-down of [35S]-TR2; format: binding; set-up: host or cells: in vitro translation, TNT reticulocyte lysate; details: for Interaction with [35S]-TR2: GST-ER fragments, presence of 1 μM E2, Example 1; for Interaction with TR2: GST-fused ER peptides, presence or absence of E2, Example 2
T1 sequence (P13056 1-603): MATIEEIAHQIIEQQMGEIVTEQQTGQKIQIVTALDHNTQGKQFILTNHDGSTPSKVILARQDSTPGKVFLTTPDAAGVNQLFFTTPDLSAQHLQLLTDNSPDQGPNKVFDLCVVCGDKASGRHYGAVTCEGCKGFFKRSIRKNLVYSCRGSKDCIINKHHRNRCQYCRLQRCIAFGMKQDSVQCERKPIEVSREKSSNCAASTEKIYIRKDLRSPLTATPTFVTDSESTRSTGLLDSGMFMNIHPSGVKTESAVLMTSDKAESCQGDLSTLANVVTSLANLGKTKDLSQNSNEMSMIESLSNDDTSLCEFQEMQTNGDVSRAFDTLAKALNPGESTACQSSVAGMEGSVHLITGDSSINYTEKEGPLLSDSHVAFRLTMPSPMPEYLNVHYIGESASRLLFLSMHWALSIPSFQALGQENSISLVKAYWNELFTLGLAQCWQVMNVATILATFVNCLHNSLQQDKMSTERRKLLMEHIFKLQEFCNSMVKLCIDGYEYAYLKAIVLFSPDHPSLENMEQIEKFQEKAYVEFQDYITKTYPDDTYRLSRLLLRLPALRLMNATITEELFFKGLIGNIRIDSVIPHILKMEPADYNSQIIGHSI
Experimental: Fusion proteins of GST-TR2, GST-ER segments and GST were obtained by transforming expressing plasmids into BL21(DE3) pLysS competent bacteria followed with 2-hour IPTG induction. GST-proteins were then purified by mixing Glutathione-Sepharose™ 4B (Pharmacia) into bacteria lysates on a rotating disk at 4° C. for 40 mm followed by washing with 1 mL NENT buffer (20 mM Tris-HCL (pH 8.0), 100 mM NaCl, 1 mM EDTA, 6 mM MgCl2, 1 mM Dithiothretiol, 8% Glycerol, 1 mM PMSF and 0.5% (v/v) NP-40). The ER, AR, RXRA., and TR2 proteins labeled with [35S] were generated in vitro by using the TNT reticulocyte lysate system (Promega). For the in vitro interaction, the glutathione-Sepharose bound GST-proteins were resuspended with 100 μl of interaction buffer (20 mM HEPES pH 7.9, 150 mM KCl, 5 mM MgCl2. 0.5 mM EDTA, 0.5 mM Dithiothretiol, 0.1% (v/v) NP-40, 0.1% (w/v) BSA and 1 mM PMSF) and mixed with 5 μl of […] at 4° C. for 3 h. After extensive washes with NENT buffer, the bound proteins were separated on an SDS/8% PAGE and visualized by using autoradiography.
The in vitro GST pull-down assay was applied to examine the interaction between the TR2 and ER. In vitro-translated, [35S]-labeled ER, AR, and RXRα proteins were incubated with GST or GST-TR2 bound on glutathione-Sepharose beads. After extensive washing, proteins were separated on an SDS/8% PAGE and visualized by using autoradiography.
GST alone and GST fusion proteins were purified by Glutathione-Sepharose 4B beads as instructed by manufacturer (Amersham Pharmacia). The pull-down assay was performed with 5 μl of in vitro-translated [^35S]-labeled proteins as described previously (Yeh, S. et al. (2000) Proc. Natl. Acad. Sci. USA 97, 11256-61).

[1] = molecular target: T2, estrogen receptor (ER), full-length (human, UniProt P03372 1-595); assay: Table 4, summary of interactions tested; assay not given
T2 construct: 35S-labeled when in vitro translated for the pull-downs; endogenous in MCF7 cells for the co-immunoprecipitation; also called ERα; pSG5-ER
T2 sequence: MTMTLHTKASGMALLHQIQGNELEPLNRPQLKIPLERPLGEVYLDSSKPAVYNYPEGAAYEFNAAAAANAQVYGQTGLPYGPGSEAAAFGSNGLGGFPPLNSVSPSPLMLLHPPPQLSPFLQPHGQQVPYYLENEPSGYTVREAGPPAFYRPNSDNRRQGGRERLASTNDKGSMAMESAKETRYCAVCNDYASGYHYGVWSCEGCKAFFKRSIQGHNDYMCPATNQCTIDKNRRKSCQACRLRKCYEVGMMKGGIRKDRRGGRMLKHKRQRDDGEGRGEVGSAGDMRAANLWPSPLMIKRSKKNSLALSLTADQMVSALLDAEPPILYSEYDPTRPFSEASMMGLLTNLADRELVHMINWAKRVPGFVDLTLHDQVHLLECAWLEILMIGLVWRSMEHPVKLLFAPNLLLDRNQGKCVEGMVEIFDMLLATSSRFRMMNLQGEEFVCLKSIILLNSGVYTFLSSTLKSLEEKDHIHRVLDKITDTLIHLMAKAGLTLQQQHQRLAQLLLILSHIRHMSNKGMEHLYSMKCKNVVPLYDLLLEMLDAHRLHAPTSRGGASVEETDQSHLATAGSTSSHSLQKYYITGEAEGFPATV

C[C@]12CCC(=O)C[C@@H]1CC[C@@H]1[C@@H]2CC[C@]2(C)[C@@H](O)CC[C@@H]12 [DHT, hihydroxytestosterone, reference compound]
PSA mRNA expression (PSA; 10 nM DHT, pCMV-TR2, Example 4): induces PSA mRNA expression
Induction of PSA transcript (PSA; 24 hours of DHT treatment): about 2.5 fold

C[C@H]1c2cccc(O)c2C(=O)C2=C(O)[C@]3(O)C(=O)C(C(N)=O)=C(O)[C@@H](N(C)C)[C@@H]3[C@@H](O)[C@@H]21 [doxycycline, reference compound]
Cell growth, relative folds of MTT O.D.570 at day 5 divided by day 3 (MCF7-TR2 cells): 11.1 fold

B1: GST-ER-DBD: GST fusion of aa 123-340 of ER (protein)
chain: PHGQQVPYYLENEPSGYTVREAGPPAFYRPNSDNRRQGGRERLASTNDKGSMAMESAKETRYCAVCNDYASGYHYGVWSCEGCKAFFKRSIQGHNDYMCPATNQCTIDKNRRKSCQACRLRKCYEVGMMKGGIRKDRRGGRMLKHKRQRDDGEGRGEVGSAGDMRAANLWPSPLMIKRSKKNSLALSLTADQMVSALLDAEPPILYSEYDPTRPFSEA
modifications: left off: a dimerising Fc or GST; small tags and cut ends
notes: GST fusion of aa 123-340 of ER
Interaction with [35S]-TR2 (TR2): not

B2: GST-ER-#2: GST fusion of ER aa 123-340 (protein)
chain: PHGQQVPYYLENEPSGYTVREAGPPAFYRPNSDNRRQGGRERLASTNDKGSMAMESAKETRYCAVCNDYASGYHYGVWSCEGCKAFFKRSIQGHNDYMCPATNQCTIDKNRRKSCQACRLRKCYEVGMMKGGIRKDRRGGRMLKHKRQRDDGEGRGEVGSAGDMRAANLWPSPLMIKRSKKNSLALSLTADQMVSALLDAEPPILYSEYDPTRPFSEA
modifications: left off: a dimerising Fc or GST; small tags and cut ends
Interaction with TR2 (TR2): can interact

B3: TR4 LBD (row label of Table 4) (receptor)
chain: AASTEKIYIRKDLRSPLIATPTFVADKDGARQTGLLDPGMLVNIQQPLIREDGTVLLATDSKAETSQGALGTLANVVTSLANLSESLNNGDTSEIQPEDQSASEITRAFDTLAKALNTTDSSSSPSLADGIDTSGGGSIHVISRDQSTPIIEVEGPLLSDTHVTFKLTMPSPMPEYLNVHYICESASRLLFLSMHRARSIPAFQGLGQDCNTSLVRACWNELFTLGLAQCAQVMSLSTILAAIVNHLQNSIQEDKLSGDRIKQVMEHIWKLQEFCNSMANWDIDGYEYAYLKAIVLFSPDHPGLTSTSQIEKFQEKAQMELQDYVQKTYSEDTYRLARILVRLPALRLMSSNITEELFFTGLIGNVSIDSIIPYILKMETAEYNGQITGVSL
notes: not shown: Fusion partner: GST in the pull-down with ER, GAL4-DBD in the hybrid assays with AR
binding result [1]: binds

B4: GST-ER-N: GST fusion of aa 1-165 of ER (protein)
chain: MTMTLHTKASGMALLHQIQGNELEPLNRPQLKIPLERPLGEVYLDSSKPAVYNYPEGAAYEFNAAAAANAQVYGQTGLPYGPGSEAAAFGSNGLGGFPPLNSVSPSPLMLLHPPPQLSPFLQPHGQQVPYYLENEPSGYTVREAGPPAFYRPNSDNRRQGGRERL
modifications: left off: a dimerising Fc or GST; small tags and cut ends
notes: GST fusion of aa 1-165 of ER
Interaction with [35S]-TR2 (TR2): not

B5: GST-ER-#I: GST fusion of ER aa 1-165 (protein)
chain: MTMTLHTKASGMALLHQIQGNELEPLNRPQLKIPLERPLGEVYLDSSKPAVYNYPEGAAYEFNAAAAANAQVYGQTGLPYGPGSEAAAFGSNGLGGFPPLNSVSPSPLMLLHPPPQLSPFLQPHGQQVPYYLENEPSGYTVREAGPPAFYRPNSDNRRQGGRERL
modifications: left off: a dimerising Fc or GST; small tags and cut ends
Interaction with TR2 (TR2): not

B6: TR2 DBD (row label of Table 4) (receptor)
chain: DLSAQHLQLLTDNSPDQGPNKVFDLCVVCGDKASGRHYGAVTCEGCKGFFKRSIRKNLVYSCRGSKDCIINKHHRNRCQYCRLQRCIAFGMKQDSVQCERKPIEVSREK
notes: not shown: GST fusion partner of pGEX-KG (GST-TR2-#2)
binding result [1]: binds

B7: TR2 N-T (row label of Table 4) (receptor)
chain: MATIEEIAHQIIEQQMGEIVTEQQTGQKIQIVTALDHNTQGKQFILTNHDGSTPSKVILARQDSTPGKVFLTTPDAAGVNQLFFTTPDLSAQHLQLLTDNSPDQGPNKVFDL
notes: also called TR2 N-terminal domain; not shown: GST fusion partner of pGEX-KG (GST-TR2-#1)
binding result [1]: no binding
